Results: patent US20120283184A1 (published 2012)

Target: T1, human vascular endothelial growth factor receptor-2 Fc chimera (KDR-Fc) (human, UniProt P35968 20-764)
T1 construct: range 1-764; also called human VEGFR-2; not shown: human IgG1 Fc
Experiment: radioactive equilibrium binding, 1 nM KDR-Fc, % of input
Description: To prepare ³⁵S-labeled binding proteins for analysis, mRNA was prepared as described above for RNA-protein fusion production but the linker ligation step was omitted. The mRNA was expressed using rabbit reticulocyte lysate translation kit (Ambion) in the presence of ³⁵S-labeled Met at 30° C. for 1 hour. Expressed protein was purified on M2-agarose Flag beads (Sigma) as described above. This procedure produced the encoded protein without the nucleic acid tail. In a direct binding assay, VEGF-R2-Fc fusions in concentrations ranging from 0 to 200 nM were added to a constant concentration of the purified protein (0.2 or 0.5 nM) and incubated at 30° C. for 1 hour in buffer B. The receptor-binder complexes were captured using Protein A magnetic beads for another 10 minutes at room temperature using a Kingfisher™ The beads were washed with six reaction volumes of buffer B. The protein was eluted from the beads with 100 μL of 0.1 M KOH. 50 μL of the reaction mixture and elution were dried onto a LumaPlate-96 (Packard) and the amount of ³⁵S on the plate was measured using a TopCount NXT instrument (Packard). The amount of fibronectin-based scaffold protein bound to the target was estimated as a percent of radioactivity eluted from Protein A magnetic beads compare to radioactivity in the reaction mixture. Nonspecific binding of fibronectin-based scaffold proteins to the beads was determined by measuring binding in the absence of KDR-Fc and represented less than 1-2% of the input. Specific binding was obtained through subtraction of nonspecific binding from total binding. Data was analyzed using the GraphPad Prizm software (GraphPad Software, Inc, San Diego, Calif.), fitted using a one site, non-linear binding equation.

T1 sequence (P35968 20-764 limits assumed, change not shown, form in doubt): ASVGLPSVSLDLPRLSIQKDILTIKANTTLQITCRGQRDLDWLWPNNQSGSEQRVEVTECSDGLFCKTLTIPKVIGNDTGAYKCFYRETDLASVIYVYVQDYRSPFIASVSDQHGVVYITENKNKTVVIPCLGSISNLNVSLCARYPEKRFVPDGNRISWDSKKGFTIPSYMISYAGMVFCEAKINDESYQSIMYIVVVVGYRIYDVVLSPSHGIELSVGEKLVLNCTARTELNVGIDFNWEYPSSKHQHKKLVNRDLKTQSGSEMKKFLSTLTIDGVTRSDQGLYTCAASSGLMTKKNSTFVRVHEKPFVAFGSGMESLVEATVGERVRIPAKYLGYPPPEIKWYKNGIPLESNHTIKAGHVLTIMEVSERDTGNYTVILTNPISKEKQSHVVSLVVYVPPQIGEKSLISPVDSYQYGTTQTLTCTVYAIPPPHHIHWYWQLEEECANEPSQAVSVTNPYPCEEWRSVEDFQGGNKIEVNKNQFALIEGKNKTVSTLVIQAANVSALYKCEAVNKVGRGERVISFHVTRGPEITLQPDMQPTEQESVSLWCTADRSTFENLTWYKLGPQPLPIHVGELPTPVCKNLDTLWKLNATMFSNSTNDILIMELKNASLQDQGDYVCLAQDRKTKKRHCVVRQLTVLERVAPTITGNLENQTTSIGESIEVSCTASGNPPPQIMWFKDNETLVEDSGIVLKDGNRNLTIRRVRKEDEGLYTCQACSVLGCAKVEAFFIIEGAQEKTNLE

B1: 3F8 PR3 (designed binder)
chain: EVVAATPTSLLISWRHPHFPTRYYRITYGETGGNSPVQEFTVPLQPPTATISGLKPGVDYTITVYAVTVAQNGHELKTPISINYRT
Q: Which “Binding to 1 nM KDR, %” value does the source give for B1 here?
A: Its value is 17%.

B2: 3F10 PR3 (designed binder)
chain: EVVAATPTSLLISWRHPHFPTRYYRITYGETGGNSPVQEFTVPLQPPTATISGLKPGVDYTITVYAVTLAQDDHELLTPISINYRT
Q: With B2 as the binder, how does the “Binding to 1 nM KDR, %” value read?
A: Its value is 16%.

B3: 3G2 PR3 (designed binder)
chain: EVVAATPTSLLISWRHPHFPTRYYRITYGETGGNSPVQEFTVPLQPPTATISGLKPGVDYTITVYAVTFGPSDHVLLTPISINYRT
Q: B3 was tested. Which “Binding to 1 nM KDR, %” value did it give?
A: The value was 20%.

B4: 3′A6 PR4 (designed binder)
chain: EVVAATPTSLLISWRHPHFPTRYYRITYGETGGNSPVQEFTVPLQPPTATISGLKPGVDYTITVYAVTLAQNGHELLTPISINYRT
Q: How did the “Binding to 1 nM KDR, %” value turn out when B4 was run?
A: The value was 19%.

B5: 3′A7 PR4 (designed binder)
chain: EVVAATPTSLLISWRHPHFPTRYYRITYGETGGNSPVQEFTVPLQPPTATISGLKPGVDYTITVYAVTLSDSGHALFTPISINYRT
Q: B5 was tested. Which “Binding to 1 nM KDR, %” value did it give?
A: Its value is 34%.

B6: 3′A8 PR4 (designed binder)
chain: EVVAATPTSLLISWRHPHFPTRYYRITYGETGGNSPVQEFTVPLQPPTATISGLKPGVDYTITVYAVTVAWDDHELLTPISINYRT
Q: Which “Binding to 1 nM KDR, %” value does the source give for B6 here?
A: Its value is 27%.

B7: 3′A9 PR4 (designed binder)
chain: EVVAATPTSLLISWRHPHFPTRYYRITYGETGGNSPVQEFTVPLQPPTATISGLKPGVDYTITVYAVTLAHNDRELLTPISINYRT
Q: How did the “Binding to 1 nM KDR, %” value turn out when B7 was run?
A: The value was 25%.

B8: 3′B1 PR4 (designed binder)
chain: EVVAATPTSLLISWRHPHFPTRYYRITYGETGGNSPVQEFTVPLQPPTATISGLKPGVDYTITVYAVTEARNGRELLTPISINYRT
Q: Which “Binding to 1 nM KDR, %” value does the source give for B8 here?
A: Its value is 25%.

B9: 3′B2 PR4 (designed binder)
chain: EVVAATPTSLLISWRHPHFPTRYYRITYGETGGNSPVQEFTVPLQPPTATISGLKPGVDYTITVYAVTVGRNDRELLTPISINYRT
Q: B9 was tested. Which “Binding to 1 nM KDR, %” value did it give?
A: The value was 29%.

B10: 3′B4 PR4 (designed binder)
chain: EVVAATPTSLLISWRHPHFPTRYYRITYGETGGNSPVQEFTVPLQPPTATISGLKPGVDYTITVYAVTVAWNGHELMTPISINYRT
Q: Which “Binding to 1 nM KDR, %” value does the source give for B10 here?
A: The value was 38%.

B11: 3′B8 PR4 (designed binder)
chain: EVVAATPTSLLISWRHPHFPTRYYRITYGETGGNSPVQEFTVPLQPPTATISGLKPGVDYTITVYAVTLGYHDHALFTPISINYRT
Q: With B11 as the binder, how does the “Binding to 1 nM KDR, %” value read?
A: The value was 14%.

B12: 3′B10 PR4 (designed binder)
chain: EVVAATPTSLLISWRHPHFPTRYYRITYGETGGNSPVQEFTVPLQPPTATISGLKPGVDYTITVYAVTLAQTGRELLTPISINYRT
Q: Which “Binding to 1 nM KDR, %” value does the source give for B12 here?
A: The value was 21%.

B13: 3′B11 PR4 (designed binder)
chain: EVVAATPTSLLISWRHPHFPTRYYRITYGETGGNSPVQEFTVPLQPPTATISGLKPGVDYTITVYAVTETWNDHEIRTPISINYRT
Q: B13 was tested. Which “Binding to 1 nM KDR, %” value did it give?
A: The value was 23%.

B14: 3′B12 PR4 (designed binder)
chain: EVVAATPTSLLISWRHPHFPTRYYRITYGETGGNSPVQEFTVPLQPPTATISGLKPGVDYTITVYAVTVAHENRELLTPISINYRT
Q: For B14, which “Binding to 1 nM KDR, %” value is on record?
A: Its value is 28%.

B15: 3′C3 PR4 (designed binder)
chain: EVVAATPTSLLISWRHPHFPTRYYRITYGETGGNSPVQEFTVPLQPPTATISGLKPGVDYTITVYAVTMAQNGHALFTPISINYRT
Q: Which “Binding to 1 nM KDR, %” value does the source give for B15 here?
A: Its value is 32%.

B16: 3′C5 PR4 (designed binder)
chain: EVVAATPTSLLISWRHPHFPTRYYRITYGETGGNSPVQEFTVPLQPPTATISGLKPGVDYTITVYAVTDAMYGRELMTPISINYRT
Q: With B16 as the binder, how does the “Binding to 1 nM KDR, %” value read?
A: The value was 27%.

B17: 3′C8 PR4 (designed binder)
chain: EVVAATPTSLLISWRHPHFPTRYYRITYGETGGNSPVQEFTVPLQPPTATISGLKPGVDYTITVYAVTEGLNDHELMIPISINYRT
Q: B17 was tested. Which “Binding to 1 nM KDR, %” value did it give?
A: Its value is 19%.

B18: 3′C12 PR4 (designed binder)
chain: EVVAATPTSLLISWRHPHFPTRYYRITYGETGGNSPVQEFTVPLQPPTATISGLKPGVDYTITVYAVTIGPNNHELLTPISINYRT
Q: B18 was tested. Which “Binding to 1 nM KDR, %” value did it give?
A: The value was 33%.

B19: 3′D2 PR4 (designed binder)
chain: EVVAATPTSLLISWRHPHFPTRYYRITYGETGGNSPVQEFTVPLQPPTATISGLKPGVDYTITVYAVTVESNGHALFVPISINYRT
Q: For B19, which “Binding to 1 nM KDR, %” value is on record?
A: The value was 19%.

B20: 3′D3 PR4 (designed binder)
chain: EVVAATPTSLLISWRHPHFPTRYYRITYGETGGNSPVQEFTVPLQPPTATISGLKPGVDYTITVYAVTPGPGDRELITPISINYRT
Q: B20 was tested. Which “Binding to 1 nM KDR, %” value did it give?
A: The value was 42%.

B21: 3′D8 PR4 (designed binder)
chain: EVVAATPTSLLISWRHPHFPTRYYRITYGETGGNSPVQEFTVPLQPPTATISGLKPGVDYTITVYAVTAGPNDHQLFTPISINYRT
Q: For B21, which “Binding to 1 nM KDR, %” value is on record?
A: The value was 27%.

B22: 3′D9 PR4 (designed binder)
chain: EVVAATPTSLLISWRHPHFPTRYYRITYGETGGNSPVQEFTVPLQPPTATISGLKPGVDYTITVYAVTGYYNDRELLTPISINYRT
Q: How did the “Binding to 1 nM KDR, %” value turn out when B22 was run?
A: The value was 30%.

B23: 3′E1 PR4 (designed binder)
chain: EVVAATPTSLLISWRHPHFPTRYYRITYGETGGNSPVQEFTVPLQPPTATISGLKPGVDYTITVYAVTVAPNGHELFTPISINYRT
Q: For B23, which “Binding to 1 nM KDR, %” value is on record?
A: Its value is 32%.

B24: 3′E3 PR4 (designed binder)
chain: EVVAATPTSLLISWRHPHFPTRYYRITYGETGGNSPVQEFTVPLQPPTATISGLKPGVDYTITVYAVTMAQYGRELLTPISINYRT
Q: How did the “Binding to 1 nM KDR, %” value turn out when B24 was run?
A: The value was 41%.

B25: 3′E5 PR4 (designed binder)
chain: EVVAATPTSLLISWRHPHFPTRYYRITYGETGGNSPVQEFTVPLQPPTATISGLKPGVDYTITVYAVTVAWDGRELFTPISINYRT
Q: For B25, which “Binding to 1 nM KDR, %” value is on record?
A: Its value is 23%.

B26: 3′E9 PR4 (designed binder)
chain: EVVAATPTSLLISWRHPHFPTRYYRITYGETGGNSPVQEFTVPLQPPTATISGLKPGVDYTITVYAVTVEQDGHVLYIPISINYRT
Q: How did the “Binding to 1 nM KDR, %” value turn out when B26 was run?
A: Its value is 44%.

B27: 3′E10 PR4 (designed binder)
chain: EVVAATPTSLLISWRHPHFPTRYYRITYGETGGNSPVQEFTVPLQPPTATISGLKPGVDYTITVYAVTAGHKDQELLTPISINYRT
Q: With B27 as the binder, how does the “Binding to 1 nM KDR, %” value read?
A: Its value is 21%.

B28: 3′E11 PR4 (designed binder)
chain: EVVAATPTSLLISWRHPHFPTRYYRITYGETGGNSPVQEFTVPLQPPTATISGLKPGVDYTITVYAVTVGPHDRELLTPISINYRT
Q: With B28 as the binder, how does the “Binding to 1 nM KDR, %” value read?
A: The value was 17%.

B29: 3′F1 PR4 (designed binder)
chain: EVVAATPTSLLISWRHPHFPTRYYRITYGETGGNSPVQEFTVPLQPPTATISGLKPGVDYTITVYAVTVAQDGHFLYTPISINYRT
Q: Which “Binding to 1 nM KDR, %” value does the source give for B29 here?
A: The value was 31%.

B30: 3′F2 PR4 (designed binder)
chain: EVVAATPTSLLISWRHPHFPTRYYRITYGETGGNSPVQEFTVPLQPPTATISGLKPGVDYTITVYAVTLGKNDHELLTPISINYRT
Q: How did the “Binding to 1 nM KDR, %” value turn out when B30 was run?
A: The value was 29%.

B31: 3′F3 PR4 (designed binder)
chain: EVVAATPTSLLISWRHPHFPTRYYRITYGETGGNSPVQEFTVPLQPPTATISGLKPGVDYTITVYAVTLGHNDRELLTPISINYRT
Q: B31 was tested. Which “Binding to 1 nM KDR, %” value did it give?
A: The value was 37%.

B32: 3′F6 PR4 (designed binder)
chain: EVVAATPTSLLISWRHPHFPTRYYRITYGETGGNSPVQEFTVPLQPPTATISGLKPGVDYTITVYAVTIEQSGLQLMTPISINYRT
Q: B32 was tested. Which “Binding to 1 nM KDR, %” value did it give?
A: Its value is 24%.

B33: 3′F9 PR4 (designed binder)
chain: EVVAATPTSLLISWRHPHFPTRYYRITYGETGGNSPVQEFTVPLQPPTATISGLKPGVDYTITVYAVTLGPNDRELMTPISINYRT
Q: With B33 as the binder, how does the “Binding to 1 nM KDR, %” value read?
A: The value was 18%.

B34: 3′F12 PR4 (designed binder)
chain: EVVAATPTSLLISWRHPHFPTRYYRITYGETGGNSPVQEFTVPLQPPTATISGLKPGVDYTITVYAVTLSQTDHELLTPISINYRT
Q: B34 was tested. Which “Binding to 1 nM KDR, %” value did it give?
A: Its value is 17%.

B35: 3′G1 PR4 (designed binder)
chain: EVVAATPTSLLISWRHPHFPTRYYRITYGETGGNSPVQEFTVPLQPPTATISGLKPGVDYTITVYAVTLALNGHELFTPISINYRT
Q: With B35 as the binder, how does the “Binding to 1 nM KDR, %” value read?
A: The value was 19%.

B36: 3′G2 PR4 (designed binder)
chain: EVVAATPTSLLISWRHPHFPTRYYRITYGETGGNSPVQEFTVPLQPPTATISGLKPGVDYTITVYAVTLAQNGHELITPISINYRT
Q: How did the “Binding to 1 nM KDR, %” value turn out when B36 was run?
A: The value was 15%.
